In publication PMC5692476, “Effects of Periplasmic Chaperones and Membrane Thickness on BamA-Catalyzed Outer-Membrane Protein Folding” (Journal of Molecular Biology, 2017):
Values joined by “and” are separate entries in the source; they are usually repeats but may differ in a detail not shown here. Equal values may be shown once.

T1: transmembrane domain of OmpA (tOmpA) (E. coli, UniProt P0A910 22-192)
T1 construct: 171-residue transmembrane (beta-barrel) domain of OmpA; Diluted from a denatured state in 8 M urea into the chaperone solution; PDB 1QJP, used for the simulations, is the same domain with mutated residues
T1 sequence (looked up): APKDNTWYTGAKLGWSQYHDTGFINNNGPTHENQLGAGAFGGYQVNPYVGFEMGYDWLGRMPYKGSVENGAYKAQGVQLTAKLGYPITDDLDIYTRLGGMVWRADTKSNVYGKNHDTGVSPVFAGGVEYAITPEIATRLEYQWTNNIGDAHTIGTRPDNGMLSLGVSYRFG

T2: SurA (Escherichia coli), P0ABZ6
T2 chain: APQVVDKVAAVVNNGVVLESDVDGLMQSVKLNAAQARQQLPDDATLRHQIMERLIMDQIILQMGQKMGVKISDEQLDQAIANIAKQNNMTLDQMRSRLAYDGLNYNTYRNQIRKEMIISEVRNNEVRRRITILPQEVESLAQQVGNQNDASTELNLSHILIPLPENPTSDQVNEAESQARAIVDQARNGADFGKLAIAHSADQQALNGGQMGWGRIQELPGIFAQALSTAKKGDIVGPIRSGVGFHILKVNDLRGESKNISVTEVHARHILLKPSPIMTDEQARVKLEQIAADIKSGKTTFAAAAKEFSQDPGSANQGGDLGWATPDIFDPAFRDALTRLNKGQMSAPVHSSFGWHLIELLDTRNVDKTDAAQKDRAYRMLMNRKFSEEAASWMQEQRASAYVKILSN


What was measured:
[1] = biological target: OmpC (Escherichia coli) (UniProt P06996); assay: FRET; settings: cited from earlier work
[2] = biological target: T1, transmembrane domain of OmpA (tOmpA); assay: native MS; nano-ESI; proteins alone or pre-mixed 1:1; tOmpA diluted from 8 M urea into Skp or SurA (all 1 μM final, 0.2 M urea, 50 mM glycine–NaOH pH 9.5), 5 min at room temperature, then buffer exchange into 200 mM ammonium acetate pH 10; settings: both partners purified
[3] = biological target: Cys-tOmpA labeled with Alexa Fluor 488 (E. coli); assay: MST; 100 nM Alexa Fluor 488-labeled Cys-tOmpA, SurA 100 μM–3 nM, 0.25 M urea, 50 mM glycine–NaOH pH 9.5; Monolith NT.115; fit to the Hill equation; apparent
[4] = biological target: T2, SurA (Escherichia coli), P0ABZ6; assay: native MS; nano-ESI; proteins alone or pre-mixed 1:1; tOmpA diluted from 8 M urea into Skp or SurA (all 1 μM final, 0.2 M urea, 50 mM glycine–NaOH pH 9.5), 5 min at room temperature, then buffer exchange into 200 mM ammonium acetate pH 10; settings: remark: other sources report otherwise

Chain of OmpC (Escherichia coli) (P06996 22-367): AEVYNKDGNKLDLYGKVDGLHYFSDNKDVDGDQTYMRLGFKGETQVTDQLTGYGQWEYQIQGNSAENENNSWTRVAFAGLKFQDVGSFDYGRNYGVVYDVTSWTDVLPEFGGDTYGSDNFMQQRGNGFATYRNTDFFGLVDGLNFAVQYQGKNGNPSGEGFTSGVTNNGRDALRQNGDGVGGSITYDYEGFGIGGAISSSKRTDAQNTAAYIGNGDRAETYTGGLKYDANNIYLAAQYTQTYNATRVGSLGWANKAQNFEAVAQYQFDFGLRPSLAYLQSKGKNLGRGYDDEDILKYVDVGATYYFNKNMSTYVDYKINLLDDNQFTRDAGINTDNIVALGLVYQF

Molecule	Kd [1]	stoichiometry N [2]	Kd [3]	stoichiometry N [4]
SurA (from UniProt P0ABZ6)	106 nM	–	–	–
Skp (natural protein, Escherichia coli, UniProt P0AEU7 21-161, looked up, Skp, periplasmic chaperone of Escherichia coli; Probably the mature protein without its signal peptide (surmised); also called Escherichia coli periplasmic chaperone Skp) ADKIAIVNMGSLFQQVAQKTGVSNTLENEFKGRASELQRMETDLQAKMKKLQSMKAGSDRTKLEKDVMAQRQTFAQKAQAFEQDRARRSNEERGKLVTRIQTAVKSVANSQDIDLVVDANAVAYNSSDVKDITADVLKQVK	–	1	–	–
SurA (natural protein, Escherichia coli, UniProt P0ABZ6 21-428, looked up, SurA, periplasmic chaperone of Escherichia coli; Probably the mature protein without its signal peptide (surmised); also called Escherichia coli periplasmic chaperone SurA) APQVVDKVAAVVNNGVVLESDVDGLMQSVKLNAAQARQQLPDDATLRHQIMERLIMDQIILQMGQKMGVKISDEQLDQAIANIAKQNNMTLDQMRSRLAYDGLNYNTYRNQIRKEMIISEVRNNEVRRRITILPQEVESLAQQVGNQNDASTELNLSHILIPLPENPTSDQVNEAESQARAIVDQARNGADFGKLAIAHSADQQALNGGQMGWGRIQELPGIFAQALSTAKKGDIVGPIRSGVGFHILKVNDLRGESKNISVTEVHARHILLKPSPIMTDEQARVKLEQIAADIKSGKTTFAAAAKEFSQDPGSANQGGDLGWATPDIFDPAFRDALTRLNKGQMSAPVHSSFGWHLIELLDTRNVDKTDAAQKDRAYRMLMNRKFSEEAASWMQEQRASAYVKILSN	–	1 and 2	1800 nM	2
